How the values were obtained:
[1] = target: HALOGluA2(R) (GluA2(R) subunit with HALO domain inserted between signal peptide and N-terminal domain) (rat) (UniProt P19491); experiment: FRET or BRET
[2] = target: HALOGluA3 (GluA3 subunit with HALO domain inserted between signal peptide and N-terminal domain) (rat) (UniProt P19492); experiment: FRET or BRET
HALOGluA3 (GluA3 subunit with HALO domain inserted between signal peptide and N-terminal domain) (rat), sequence (P19492 23-888): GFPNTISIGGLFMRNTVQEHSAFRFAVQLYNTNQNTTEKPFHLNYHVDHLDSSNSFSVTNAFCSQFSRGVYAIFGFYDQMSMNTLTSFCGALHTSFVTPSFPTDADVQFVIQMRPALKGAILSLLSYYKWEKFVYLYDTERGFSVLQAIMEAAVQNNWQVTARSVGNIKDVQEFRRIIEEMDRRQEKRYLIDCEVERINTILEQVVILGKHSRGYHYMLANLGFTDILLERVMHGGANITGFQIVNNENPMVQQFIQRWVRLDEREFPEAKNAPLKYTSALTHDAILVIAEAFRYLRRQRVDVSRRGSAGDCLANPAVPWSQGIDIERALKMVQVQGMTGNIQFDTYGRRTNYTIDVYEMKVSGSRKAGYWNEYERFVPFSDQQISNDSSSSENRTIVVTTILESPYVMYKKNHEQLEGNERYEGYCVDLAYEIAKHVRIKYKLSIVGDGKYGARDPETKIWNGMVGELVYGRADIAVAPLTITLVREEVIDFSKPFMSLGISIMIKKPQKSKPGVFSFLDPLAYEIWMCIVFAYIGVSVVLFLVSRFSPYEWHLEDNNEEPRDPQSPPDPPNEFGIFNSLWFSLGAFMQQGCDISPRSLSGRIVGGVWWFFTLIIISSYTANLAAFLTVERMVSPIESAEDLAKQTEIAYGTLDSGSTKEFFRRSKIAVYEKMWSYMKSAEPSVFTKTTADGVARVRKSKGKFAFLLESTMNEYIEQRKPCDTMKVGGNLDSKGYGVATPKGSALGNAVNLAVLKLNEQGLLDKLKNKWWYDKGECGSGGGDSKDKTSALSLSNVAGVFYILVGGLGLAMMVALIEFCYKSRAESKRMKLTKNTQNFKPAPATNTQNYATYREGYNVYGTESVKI

CFPGluA2(R) (GluA2(R) subunit with CFP inserted between signal peptide and N-terminal domain), sequence (P19491 22-883): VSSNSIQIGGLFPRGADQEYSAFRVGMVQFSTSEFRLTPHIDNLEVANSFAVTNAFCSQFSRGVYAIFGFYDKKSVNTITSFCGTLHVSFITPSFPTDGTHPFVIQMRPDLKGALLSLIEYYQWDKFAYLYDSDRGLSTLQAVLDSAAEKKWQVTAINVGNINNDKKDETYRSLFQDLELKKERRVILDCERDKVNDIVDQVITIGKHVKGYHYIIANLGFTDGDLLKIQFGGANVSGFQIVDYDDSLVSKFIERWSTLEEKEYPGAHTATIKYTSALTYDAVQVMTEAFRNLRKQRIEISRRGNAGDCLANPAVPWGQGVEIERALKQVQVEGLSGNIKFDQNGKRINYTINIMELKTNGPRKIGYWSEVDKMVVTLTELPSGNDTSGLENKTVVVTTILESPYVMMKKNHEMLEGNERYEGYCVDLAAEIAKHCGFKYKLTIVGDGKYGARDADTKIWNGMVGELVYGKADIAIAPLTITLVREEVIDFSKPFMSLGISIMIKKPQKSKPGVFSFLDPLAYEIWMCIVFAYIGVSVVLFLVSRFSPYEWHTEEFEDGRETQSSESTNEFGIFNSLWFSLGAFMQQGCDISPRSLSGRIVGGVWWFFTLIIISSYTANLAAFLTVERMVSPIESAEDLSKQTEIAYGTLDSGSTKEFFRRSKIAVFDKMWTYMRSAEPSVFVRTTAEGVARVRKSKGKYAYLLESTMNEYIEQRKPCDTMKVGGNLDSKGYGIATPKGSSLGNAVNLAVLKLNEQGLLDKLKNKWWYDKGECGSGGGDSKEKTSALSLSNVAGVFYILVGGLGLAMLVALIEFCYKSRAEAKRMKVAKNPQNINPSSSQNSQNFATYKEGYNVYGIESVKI
HALOGluA2(R) (GluA2(R) subunit with HALO domain inserted between signal peptide and N-terminal domain) (rat), sequence (P19491 22-883): as above
CFPGluA1 (GluA1 subunit with CFP inserted between signal peptide and N-terminal domain), sequence (P19490 19-907): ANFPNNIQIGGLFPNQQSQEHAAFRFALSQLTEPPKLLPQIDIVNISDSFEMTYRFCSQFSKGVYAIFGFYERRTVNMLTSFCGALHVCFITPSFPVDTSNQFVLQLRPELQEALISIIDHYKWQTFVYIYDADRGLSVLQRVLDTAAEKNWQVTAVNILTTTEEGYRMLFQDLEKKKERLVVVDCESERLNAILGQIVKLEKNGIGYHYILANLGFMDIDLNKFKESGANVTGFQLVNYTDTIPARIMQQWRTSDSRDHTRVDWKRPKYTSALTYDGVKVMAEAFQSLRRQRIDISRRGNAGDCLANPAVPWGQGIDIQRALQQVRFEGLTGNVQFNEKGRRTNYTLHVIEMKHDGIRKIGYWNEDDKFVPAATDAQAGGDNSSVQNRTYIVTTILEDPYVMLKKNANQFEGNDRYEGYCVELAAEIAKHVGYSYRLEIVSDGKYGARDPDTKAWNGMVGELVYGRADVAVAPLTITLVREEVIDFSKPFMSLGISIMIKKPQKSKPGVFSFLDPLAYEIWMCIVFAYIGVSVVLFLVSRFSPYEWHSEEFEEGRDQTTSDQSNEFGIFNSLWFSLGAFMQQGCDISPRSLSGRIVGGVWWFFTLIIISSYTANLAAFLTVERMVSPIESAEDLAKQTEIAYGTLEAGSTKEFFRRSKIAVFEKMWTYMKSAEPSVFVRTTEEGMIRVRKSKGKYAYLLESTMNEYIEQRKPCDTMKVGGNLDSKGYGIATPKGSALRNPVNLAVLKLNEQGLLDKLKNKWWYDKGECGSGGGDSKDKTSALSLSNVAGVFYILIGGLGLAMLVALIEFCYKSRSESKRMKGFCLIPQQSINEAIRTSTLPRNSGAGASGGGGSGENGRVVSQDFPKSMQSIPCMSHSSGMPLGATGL

| CFP (donor) lifetime mean in the presence of the acceptor AF488 [1] | E FRET [1] [%] | CFP (donor) lifetime mean in the presence of the acceptor AF488 [2] | E FRET [2] [%] | Substance |
| --- | --- | --- | --- | --- |
| 2.03 | 38.5 |  |  | CFPGluA1 (GluA1 subunit with CFP inserted between signal peptide and N-terminal domain) (from UniProt P19490 19-907) (receptor) |
|  |  | 2.51 | 27 | CFPGluA2(R) (GluA2(R) subunit with CFP inserted between signal peptide and N-terminal domain) (from UniProt P19491 22-883) (receptor) |

Source: paper doi:10.64898/2025.12.17.694835
